Assay results as given in the DeepSol protein solubility set.

experiment: soluble on expression in E. coli; label from the status in PepcDB or PDB records

Which “soluble on expression in E. coli” value does the source give for “SNAIAVGSERSADGKGMLLANPHFPWNGAMRFYQMHLTIPGRLDVMGASLPGLPVVNIGFSRHLAWTHTVDTSSHFTLYRLALDPKDPRRYLVDGRSLPLEEKSVAIEVRGADGKLSRVEHKVYQSIYGPLVVWPGKLDWNRSEAYALRDANLENTRVLQQWYSINQASDVADLRRRVEALQGIPWVNTLAADEQGNALYMNQSVVPYLKPELIPACAIPQLVAEGLPALQGQDSRCAWSRDPAAAQAGITPAAQLPVLLRRDFVQNSNDSAWLTNPASPLQGFSPLVSQEKPIGPRARYALSRLQGKQPLEAKTLEEMVTANHVFSADQVLPDLLRLCRDNQGEKSLARACAALAQWDRGANLDSGSGFVYFQRFMQRFAELDGAWKEPFDAQRPLDTPQGIALDRPQVATQVRQALADAAAEVEKSGIPDGARWGDLQVSTRGQERIAIPGGDGHFGVYNAIQSVRKGDHLEVVGGTSYIQLVTFPEEGPKARGLLAFSQSSDPRSPHYRDQTELFSRQQWQTLPFSDRQIDADPQLQRLSIRE” here?
The value was “soluble”.

Which “soluble on expression in E. coli” value does the source give for “MRKEEVLALLRSRWPELCALGVAELYLFGSLARGEARPRSDVDLLVAFATPPGFEGYWRVKEFLESLLGRPVDLVMKGALKPWAVSEVLGEAVRVA” here?
Its value is “soluble”.

For “MKRMIVRMTLPLLIVCLAFSSFSASARAASEEKYWDHWIERHAQPLDASNASNKDLRFLKKVLKGKRIVQLGETTHGAGEINATKVRMIKYLHEELGYDVLAFESGFPDTNASYLNMDQLTPKSTMKNSIYAVWHTEDVVELFDYMKEQKEKGDPLILTGFDIQSMKNSFNVAATQWVKAVDPEKAELLSQSENDFSTLVTDSNTFDEFSQKKEKLVKNYQKLIKFTKTHASELKENLPKEPKAYEMFMHSLQLRIDVMETYMLEEMKEKLEEYPENIEDFSFFMRDRMMAEQFQWVADTLYPKKKIIVWGHNYHLRKQNTKMIKDWVQLNGPNMGDYLPERLKKQTYTIGIYAYSGASLDSSDNKTVKPVTSPPPSGSLEALLKAADRPAVFVDFLHTKNKKGTSWMYTPRTALYWGYMEEQMILKEQYDGVIWLEHITPSVIIKLEHHHHHH”, which “soluble on expression in E. coli” value is on record?
Its value is “not soluble”.

For “MSLYYINLKQERILKFIEKFGVARIEHMKRILNIKDIDNQFKILIRQRKVKLVFNDICVLDGKKELNIKMIKALDLYSYLHLNNGGIPIEWCMPQDFPFTIAFFRNSKVFDVAIINEGEETIYSSAINRGVSERVIVVLSEENQKENIKINKQIKCCTIEDGVLNFEGHHHHHH”, which “soluble on expression in E. coli” value is on record?
Its value is “not soluble”.

For “MGDGKPHTAQQTIPYLQMYPDGICRVTEKKYSKSLVFEDINYQLAQADDKTAIFENWCDFLNYFDASVSVQLSFINQGARQEKAQAAIEIPAQDDAFNSIRKEYADMLKNQLEKGNNGLEKCKYITFSIEADNLAAAKARLSRIETDVLNNFKVLGVTARPMNGQERLNVLHGIFHPAGEPFRFSWDWLVPSGLTTKDFIAPSSFHFGDGRTFRMGKKLGAVSFLEILAPELNDRMLSDILDLENGIIVNLHIRSIDQSEAIKTIKRKITDLDKMKIEEQKKAVRSGYDMDIIPSDLATFGSEAKNLLQDLQSRNERMFLLTFLVANMADTKRKLENDIFATAGFAQKNNCALTRLDYLQEAGFMSSIPLGENLIPIQRGLTTSSTAIFIPFITQELFQRGAALYYGLNALSNNMILCDRKQLKNPNGLILGTPGSGKSFAAKREITNIFLITDDDIIICDPEAEYYPLVERLHGQVVHISPTSRHYVNPMDINLNYSEDDNPLALKSDFILSLCELVIGGKEGLQPVEKTVIDRAVRNVYRPFLADPDPAKMPILGDLYNELLKQPEPEAARIAAALELYVSGSLNVFNHRTNVELSNRLVCFDIKQLGKQLKKLGMLIVQDQVWNRVTLNRAEKKATRYYMDEFHLLLKEEQTAAYSVEIWKRFRKWGGIPTAITQNVKDLLSSREVENIFENSDFVLMLNQAQGDRAILAKQLNISPQQMKYVTHTEAGEGLIFYGNVVLPFIDRFPTNTELYRLLTTKPEEVSKPLEHHHHHH”, which “soluble on expression in E. coli” value is on record?
The value was “soluble”.

With “MLPINRQQHILKWLKEEGSLRISDISARFGVSEMTVYRDVNQLVQSNQVIKTAGGITLPVRTPQTDHMCSYCLKPVNQAHSVQLITVNQDIEQLCCAHCAFLRYADKTEEVSHLICRDFLLQTTVSAGSAYFVVNAELNLHCCQPQAIPFATLDHAERFQKGFGGAVCTFDQALEDMLQDRKKRCTCTKK” as the sequence, how does the “soluble on expression in E. coli” value read?
Its value is “soluble”.
